# Results reported in the supplement of paper PMC12338614.
# ± gives the uncertainty stated by the source.
# B1: library; numbered along this chain (parent)
# chain: MEVVDPQQLGMFTEGELMSVGMDTFIHRIDSTEVIYQPRRKRAKLIGKYLMGDLLGEGSYGKVKEVLDSETLCRRAVKILKKKKLRRIPNGEANVKKEIQLLRRLRHKNVIQLVDVLYNEEKQKMYMVMEYCVCGMQEMLDSVPEKRFPVCQAHGYFCQLIDGLEYLHSQGIVHKDIKPGNLLLTTGGTLKISDLGVAEALHPFAADDTCRTSQGSPAFQPPEIANGLDTFSGFKVDIWSAGVTLYNITTGLYPFEGDNIYKLFENIGKGSYAIPGDCGPPLSDLLKGMLEYEPAKRFSIRQIRQHSWFRKKHPPAEAPVPIPPSPDTKDRWRSMTVVPYLEDLHGADEDEDLFDIEDDIIYTQDFTVPGQVPEEEASHNGQRRGLPKAVCMNGTEAAQLSTKSRAEGRAPNPARKACSASSKIRRLSACKQQ
# Variants of: B1
# Test: STK11 functional score (HeLa growth suppression), rescaled enrichment; synonymous median = 1, nonsense median = 0 (normalised score)
# Settings: with HeLa; variant type: missense
# How it was run: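 The values are functional scores: wild-type-corrected log ratios of post- versus pre-selection abundance, rescaled to synonymous and nonsense medians, merged over codons and replicate transfections, and carrying bootstrapped error. They derive from codon-randomised (POPCode), codon-optimised STK11 libraries that Bxb1 integrated at an AAVS1 landing pad in HeLa, with three transfections for each of three regions. Sequencing of tiled gDNA amplicons ran on NextSeq, at ~2 million reads per tile.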
row,Variant,STK11 functional score
1,S334A,0.943 ± 0.21
2,S334N,1.58 ± 0.47
3,S334C,0.325 ± 0.13
4,S334Y,1.55 ± 0.17
5,S334F,1.1 ± 0.45
6,S334I,0.935 ± 0.59
7,S334R,0.671 ± 0.28
8,S334P,1.43 ± 0.18
9,S334E,1.53 ± 0.17
10,S334V,1.31 ± 0.2
11,S334G,1.35 ± 0.17
12,S334W,0.649 ± 0.082
13,S334Q,1.53 ± 0.13
14,S334M,1.05 ± 0.17
15,S334T,1.18 ± 0.13
16,S334H,1.05 ± 0.61
17,S334D,1.45 ± 0.13
18,S334L,1.24 ± 0.18
19,R333G,1.47 ± 0.27
20,R333S,1.55 ± 0.2
21,R333Y,1.55 ± 0.23
22,R333H,1.05 ± 0.33
23,R333D,1.62 ± 0.25
24,R333A,1.28 ± 0.17

row,Variant,STK11 functional score
1,R333I,1.49 ± 0.23
2,R333K,1.61 ± 0.39
3,R333F,0.85 ± 0.49
4,R333L,1.32 ± 0.35
5,R333V,1.15 ± 0.64
6,R333P,1.64 ± 0.23
7,D327W,1.57 ± 0.12
8,D327R,1.61 ± 0.16
9,D327C,1.27 ± 0.32
10,D327A,1.28 ± 0.52
11,D327G,0.999 ± 0.22
12,D327Y,1.36 ± 0.08
13,D327I,1.6 ± 0.27
14,D327V,1.31 ± 0.46
15,D327P,1.59 ± 0.27
16,D327S,1.58 ± 0.26
17,D327H,1.21 ± 0.56
18,D327L,1.55 ± 0.21
19,D327N,1.3 ± 0.64
20,D327T,1.6 ± 0.19
21,D330E,0.786 ± 0.24
22,D330H,0.985 ± 0.41
23,D330A,1.18 ± 0.4
24,D330L,1.59 ± 0.16

row,Variant,STK11 functional score
1,D330N,1.44 ± 0.48
2,D330Q,0.163 ± 0.59
3,D330R,1.47 ± 0.25
4,D330S,1.47 ± 0.28
5,D330M,1.58 ± 0.17
6,D330C,1.33 ± 0.33
7,D330I,1.33 ± 0.39
8,D330G,1.23 ± 0.73
9,D330V,1.46 ± 0.3
10,D330T,1.59 ± 0.27
11,W332E,1.61 ± 0.29
12,W332Q,1.55 ± 0.27
13,W332P,1.63 ± 0.24
14,W332C,0.361 ± 0.46
15,W332A,1.56 ± 0.26
16,W332M,1.42 ± 0.27
17,W332G,1.55 ± 0.14
18,W332V,1.59 ± 0.27
19,W332L,1.55 ± 0.14
20,W332S,1.21 ± 0.33
21,W332R,1.55 ± 0.35
22,V337A,1.24 ± 0.17
23,V337D,1.2 ± 0.39
24,V337C,1.15 ± 0.19

row,Variant,STK11 functional score
1,V337F,0.545 ± 0.31
2,M335C,1.36 ± 0.15
3,M335E,1.33 ± 0.16
4,M335P,1.5 ± 0.2
5,M335A,1.51 ± 0.16
6,M335K,1.03 ± 0.7
7,M335I,1.18 ± 0.55
8,M335S,1.53 ± 0.18
9,M335R,1.46 ± 0.3
10,M335L,1.03 ± 0.18
11,M335Q,1.01 ± 0.25
12,M335T,1.46 ± 0.19
13,M335W,0.367 ± 0.13
14,M335G,1.55 ± 0.15
15,M335V,1.42 ± 0.13
16,M335Y,1.32 ± 0.35
17,M335F,1.35 ± 0.13
18,M335H,-0.482 ± 0.11
19,M335D,0.605 ± 0.14
20,R331E,1.12 ± 0.55
21,R331H,-0.127 ± 0.098
22,R331G,1.41 ± 0.16
23,R331V,1.13 ± 0.57
24,R331A,0.000385 ± 0.16

row,Variant,STK11 functional score
1,R331S,1.32 ± 0.29
2,R331N,1.35 ± 0.21
3,R331W,1.49 ± 0.27
4,R331P,1.54 ± 0.22
5,R331L,1.2 ± 0.16
6,R331I,1.16 ± 0.2
7,R331D,1.24 ± 0.36
8,R331C,1.38 ± 0.24
9,R331Y,1.35 ± 0.16
10,K329I,1.25 ± 0.46
11,K329R,0.535 ± 0.3
12,K329Q,1.1 ± 0.39
13,K329M,1.55 ± 0.15
14,K329F,1.18 ± 0.49
15,K329E,1.32 ± 0.077
16,K329P,1.47 ± 0.2
17,K329N,1.36 ± 0.49
18,K329L,1.42 ± 0.25
19,K329G,1.35 ± 0.37
20,K329Y,1.15 ± 0.096
21,K329A,1.58 ± 0.16
22,K329S,0.673 ± 0.35
23,K329W,0.742 ± 0.31
24,K329D,1.56 ± 0.27

row,Variant,STK11 functional score
1,P326R,1.53 ± 0.18
2,P326M,1.45 ± 0.12
3,P326L,1.34 ± 0.16
4,P326E,1.57 ± 0.26
5,P326C,1.34 ± 0.39
6,P326A,0.8 ± 0.72
7,P326H,0.87 ± 0.51
8,P326G,1.52 ± 0.15
9,P326V,0.813 ± 0.46
10,P326S,1.36 ± 0.17
11,P326Y,0.263 ± 0.093
12,T328R,1.5 ± 0.25
13,T328H,1.52 ± 0.17
14,T328V,1.36 ± 0.14
15,T328P,1.57 ± 0.16
16,T328E,1.5 ± 0.17
17,T328W,1.59 ± 0.26
18,T328D,1.5 ± 0.26
19,T328I,1.29 ± 0.075
20,T328L,1.03 ± 0.62
21,T328N,0.554 ± 0.47
22,T328S,1.39 ± 0.18
23,T328A,1.62 ± 0.16
24,S325V,0.786 ± 0.11

row,Variant,STK11 functional score
1,S325P,1.51 ± 0.16
2,S325W,0.629 ± 0.13
3,S325Y,0.029 ± 0.42
4,S325R,1.58 ± 0.2
5,S325T,1.17 ± 0.36
6,S325Q,1.42 ± 0.32
7,T336G,1.15 ± 0.16
8,T336R,1.54 ± 0.28
9,T336I,1.35 ± 0.33
10,T336A,1.52 ± 0.23
11,T336K,1.54 ± 0.18
12,T336Y,1.17 ± 0.15
13,T336V,1.49 ± 0.14
14,T336P,1.18 ± 0.18
15,T336N,0.774 ± 0.2
16,T336W,1.64 ± 0.15
17,T336M,0.732 ± 0.077
18,T336C,1.27 ± 0.34
19,T336D,0.148 ± 0.11
20,T336L,1.39 ± 0.15
21,T336S,1 ± 0.49
22,T336H,1.59 ± 0.14
23,T336E,1.61 ± 0.15
